Key:
[1] = molecular target: αB-crystallin (UniProt P02511); assay: SEC-MALS of homo-oligomer mass; TEM; conditions: reference: wild type; sites S59
[2] = molecular target: T1, Alcohol dehydrogenase (UniProt P00330 1-348); assay: cell-based or functional assay
T1 sequence (looked up): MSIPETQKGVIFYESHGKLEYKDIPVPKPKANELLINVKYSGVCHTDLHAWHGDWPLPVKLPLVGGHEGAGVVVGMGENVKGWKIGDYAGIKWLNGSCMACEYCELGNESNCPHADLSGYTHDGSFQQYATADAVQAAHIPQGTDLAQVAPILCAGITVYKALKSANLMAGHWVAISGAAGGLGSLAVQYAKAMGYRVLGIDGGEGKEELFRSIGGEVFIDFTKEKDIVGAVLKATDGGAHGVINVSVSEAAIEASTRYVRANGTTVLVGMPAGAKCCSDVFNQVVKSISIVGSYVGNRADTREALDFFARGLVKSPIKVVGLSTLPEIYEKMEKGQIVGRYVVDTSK

[3] = molecular target: Luciferase (UniProt P08659 1-550 = luciferase); assay: cell-based or functional assay
[4] = molecular target: Lysozyme (UniProt P00698 19-147); assay: cell-based or functional assay
[5] = molecular target: the molecule itself; assay: negative-stain transmission electron microscopy; 0.05 mg/mL on glow-discharged carbon grids, 2% uranyl acetate; oligomers of the chaperone protein alone
[6] = molecular target: the molecule itself; assay: SEC-MALS; HPLC coupled with MALS; proteins (0.15 mg in 0.05 mL) incubated at 37°C for 1 hour before analysis; self-association into oligomers

Sequence of Luciferase (P08659 whole entry): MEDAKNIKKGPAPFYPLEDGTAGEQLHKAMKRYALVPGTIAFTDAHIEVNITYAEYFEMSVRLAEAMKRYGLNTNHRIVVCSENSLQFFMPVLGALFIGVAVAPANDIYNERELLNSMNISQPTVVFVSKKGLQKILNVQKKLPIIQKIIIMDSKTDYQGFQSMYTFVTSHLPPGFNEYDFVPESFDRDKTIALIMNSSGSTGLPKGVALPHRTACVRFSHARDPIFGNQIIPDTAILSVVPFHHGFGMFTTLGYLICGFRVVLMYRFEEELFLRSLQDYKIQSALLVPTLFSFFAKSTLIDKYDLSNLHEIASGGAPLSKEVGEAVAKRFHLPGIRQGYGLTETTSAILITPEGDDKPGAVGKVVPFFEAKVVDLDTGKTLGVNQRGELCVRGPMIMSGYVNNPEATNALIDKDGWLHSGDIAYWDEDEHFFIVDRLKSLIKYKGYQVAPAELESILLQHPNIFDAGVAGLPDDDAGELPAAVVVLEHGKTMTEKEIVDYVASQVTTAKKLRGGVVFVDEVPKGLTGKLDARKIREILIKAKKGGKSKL
Sequence of Lysozyme (P00698 19-147): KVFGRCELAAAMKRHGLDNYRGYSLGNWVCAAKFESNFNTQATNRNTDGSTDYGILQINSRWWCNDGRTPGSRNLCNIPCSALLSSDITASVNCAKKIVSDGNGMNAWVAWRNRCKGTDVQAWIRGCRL

Molecule	other: average oligomeric mass [1]	chaperone efficiency against ADH (2.5 μM) aggregation relative to αB-S59D, light scattering at 360 nm, 90 min, PBS + 50 mM EDTA, 37°C [2]	EC50 of suppression of luciferase (0.5 μM) aggregation, light scattering at 360 nm, 90 min, PBS, 37°C [3]	protection against DTT-induced lysozyme (10 μM) aggregation, 2.5 μM chaperone, PBS, 2 mM DTT, 37°C, 6 hours [4]	binding result [5]	EC50 of suppression of ADH (2.5 μM) aggregation, light scattering at 360 nm, 90 min, PBS + 50 mM EDTA, 37°C [2]	binding result [6]
αB-crystallin (from UniProt P02511) ΔS59	same; reference 579						
αB-crystallin (from UniProt P02511) S59D	weaker; reference 579						
αB-crystallin with residues 54–61 deleted (natural protein, human, UniProt P02511 1-175, looked up, αB-crystallin, human, with residues 54–61 deleted; also called αB-Δ54–61; αBΔ54–61) MDIAIHHPWIRRPFFPFHSPSRLFDQFFGEHLLESDLFPTSTSLSPFYLRPPSDTGLSEMRLEKDRFSVNLDVKHFSPEELKVKVLGDVIEVHGKHEERQDEHGFISREFHRKYRIPADVDPLTITSSLSSDGVLTVNGPRKQVSGPERTIPITREEKPAVTAAPKK		1.6 fold	1200 nM	> 95%	binds		
wild-type αB-crystallin (natural protein, human, UniProt P02511 1-175, looked up, αB-crystallin, human, wild type; forms large polydisperse oligomers; no tag is mentioned; also called αB-WT; WT-αB; source: E. coli BL21(DE3)pLysS, purified (Q-Sepharose, Superdex and Superose 6 size exclusion, ammonium sulphate)) MDIAIHHPWIRRPFFPFHSPSRLFDQFFGEHLLESDLFPTSTSLSPFYLRPPSFLRAPSWFDTGLSEMRLEKDRFSVNLDVKHFSPEELKVKVLGDVIEVHGKHEERQDEHGFISREFHRKYRIPADVDPLTITSSLSSDGVLTVNGPRKQVSGPERTIPITREEKPAVTAAPKK			4300 nM	~52%		1000 nM	binds
αB-crystallin S59D (phosphomimetic mutant) (natural protein, human, UniProt P02511 1-175, looked up, αB-crystallin, human, with the phosphomimetic substitution S59D; Made by site-directed mutagenesis; also called αB-S59D; αBS59D; source: E. coli BL21(DE3)pLysS, purified (Q-Sepharose, Superdex and Superose 6 size exclusion, ammonium sulphate)) MDIAIHHPWIRRPFFPFHSPSRLFDQFFGEHLLESDLFPTSTSLSPFYLRPPSFLRAPDWFDTGLSEMRLEKDRFSVNLDVKHFSPEELKVKVLGDVIEVHGKHEERQDEHGFISREFHRKYRIPADVDPLTITSSLSSDGVLTVNGPRKQVSGPERTIPITREEKPAVTAAPKK			1100 nM			500 nM	binds
αB-crystallin S59A (natural protein, human, UniProt P02511 1-175, looked up, αB-crystallin, human, with the substitution S59A; Made by site-directed mutagenesis; called the control mutant; also called αB-S59A; source: E. coli BL21(DE3)pLysS, purified (Q-Sepharose, Superdex and Superose 6 size exclusion, ammonium sulphate)) MDIAIHHPWIRRPFFPFHSPSRLFDQFFGEHLLESDLFPTSTSLSPFYLRPPSFLRAPAWFDTGLSEMRLEKDRFSVNLDVKHFSPEELKVKVLGDVIEVHGKHEERQDEHGFISREFHRKYRIPADVDPLTITSSLSSDGVLTVNGPRKQVSGPERTIPITREEKPAVTAAPKK	stronger; reference 579		13700 nM	84%		1400 nM	binds
αB-crystallin ΔS59 (deletion of Serine 59) (natural protein, human, UniProt P02511 1-175, looked up, αB-crystallin, human, with Serine 59 deleted; Made by site-directed mutagenesis; also called αB-ΔS59; source: E. coli BL21(DE3)pLysS, purified (Q-Sepharose, Superdex and Superose 6 size exclusion, ammonium sulphate)) MDIAIHHPWIRRPFFPFHSPSRLFDQFFGEHLLESDLFPTSTSLSPFYLRPPSFLRAPWFDTGLSEMRLEKDRFSVNLDVKHFSPEELKVKVLGDVIEVHGKHEERQDEHGFISREFHRKYRIPADVDPLTITSSLSSDGVLTVNGPRKQVSGPERTIPITREEKPAVTAAPKK			8300 nM	60%		1200 nM	binds

— paper PMC12204343, “Regulatory Role of Serine59 in the Oligomeric Dynamics and Chaperone Function of αB-Crystallin” (Research Square, 2025)
